Changes are numbered by the printed parent chain.
B1: C903 (antibody, V domains shown)
VH: EVQLVESGGGLIQPGGSLRLSCAASGFIVSRNYMSWVRQAPGKGLEWVSIIYSGGSTFYADSVKGRFTISRDNSKNTVYLQMNSLRAEDTAVYYCARDYGDFYFDYWGQGTLVTVSS
VL: EIVLTQSPGTLSLSPGERATLSCRASQSVSSSYLAWYQQKPGQAPRLLIFDVSSRATGIPDRFSGSGSGTDFTLTISRLEPEDFAVYYCQQYGSSPRTFGQGTKVEIK
B2: C904 (antibody, V domains shown)
VH: QVQLQQWGAGLLKPSETLSLTCAVNGGSLSLYYWSWIRQSPGKGLEWIGEINHFGGSDYKPSLKSRVSISVDTSTNQFSLKLSSVTAADTAVYYCARKPLLHSNISPGAFDIWGQGTMVTVSS
VL: EIVLTQSPGTLSLSPGERATLSCRASQSVAGSYLAWYQQKPGQAPRLLIYGASSRATGVPDRISGSGSGTDFTLTISRLEPEDFAVYYCQQYTNTPRTFGGGTKVEI
B3: C905 (antibody, V domains shown)
VH: QVQLQESGPGLVTPSQTLSLTCSVSGGSIHSRDFYWGWIRQHPGKGLEWIGHIYYTGNTYYNPSLKSRVTISADTSKNQFSLKLSSVTAADTAVYYCARATVVITLHWFDPWGQGTLVTVSS
VL: NFMLTQPHSVSESPGKTVTISCTGSGGSIASNYVQWYQQRPGSAPTTVIYEDNERPSGVPDRFSGSIDSSSNSASLTISGVKTEDEADYFCQSYDVGNPVIFGGGTKLTVL
B4: C906 (antibody, V domains shown)
VH: EVQLVESGGGLIKPGRSLRLSCTASGFTFGDYAMTWFRQAPGKGLEWVGFIRSKAYGGTTGYAASVKYRFTISRDDSKSIVYLQMDSLKTEDTAVYYCTRWDGWSQHDYWGQGTLVTVSS
VL: DIVMTQSPLSLSVTPGEPASISCRSSQSLLHSNGINYFDWYLQKPGQSPQLLIYLGSNRASGVPDRFSGSGSGTDFTLKISRVEAEDVGVYYCMQVLQIPYTFGQGTKLEI
B5: C907 (antibody, V domains shown)
VH: QVQLQESGPGLVKPSETLSLTCTVSGGSITSYYWTWIRQSPGKGLEWIGYIYYIGSTNYNPSLKSRLTISLATSKNQFSLRLNSVTAADTAVYYCASYYNDTSGYSYGLDVWGQGTTVTVSS
VL: DIQMTQSPSSLSAFVGDRVTITCRAGQSISSYLHWYQQKPGKAPKLLIYATSTLQSGVPSRFSGRGSGTDFTLTISGLQPEDFATYYCQQSYSTPQTFGQGTKVEIK
B6: C908 (antibody, V domains shown)
VH: EVQLVQSGAEVKKPGESLKISCKASGYSFTIYWIGWVRQMPGKGLEWMGIIYPGESETRYSPSFQGQVTISADKSISTAYLQWRSLKASDTAMYYCARGGPPGGVKLELTDYWGQGTLVTVSS
VL: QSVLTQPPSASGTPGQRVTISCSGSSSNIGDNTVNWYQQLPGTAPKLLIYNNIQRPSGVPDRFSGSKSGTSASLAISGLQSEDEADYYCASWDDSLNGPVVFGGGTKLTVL
B7: C909 (antibody, V domains shown)
VH: QVQLVQSGAEVKKPGASVKVSCRASGYTFPNYDLNWVRQATGQGLEWMGWMNPNSGNTGYAQKFQGRITMTRITSISTAYMELSSLRSEDTAVYYCARGRANWNSNFLLDSWGQGTLVTVSS
VL: QSALTQPASVSGSPGQSITISCTGTSSDVGGYNLVSWYQQYPGNVPKLMIYEDAKRPSGVSNRFSGSKSANTASLTISGLQAEDEADYYCCSYAGSSTRYVFGTGTKVTVL
B8: C910 (antibody, V domains shown)
VH: QVQLVQSGAAVKKPGASVKVSCKASGYTFTSYDINWVRQAPGQGLEWMGWMNPNSGNTGFAQRFQGRATLSRDTSITTAYMELTTLRSEDTAVYYCARGRANYNSKFLLDNWGQGTLVTVSS
VL: QSALTQPASVSGSPGQSITISCTGTSSDVGSYNLVSWYQQHPGTAPKLMIYEGSKRPSGVSDRFSGYKSGNTASLTISGLQADDEADYYCCSFAGSTTRYVFGTGTRVTVL
B9: C911 (antibody, V domains shown)
VH: QVQLVESGGGVVQPGGSLRLSCAASAFTFSSYAMHWIRQSPGKGLEWVAVISSDGSSKFYADSVKGRFTISRDNSKNTLYLQMNSLSAEDTAVYYCARDLENVLIEVALQDWGQGTLVTVSS
VL: DIQMTQSPSSLSASVGDRVTITCRASQSINSYLNWYQQKPGKAPKLLIYAASSLHSGVPSRFSGSGSGTDFTLTISSLQPEDFATYYCQQSYTTLALTFGGGTKVEIK
B10: C912 (antibody, V domains shown)
VH: QVQLVESGGGVVQPGRSLRLSCAASGFSFSTYTMHWVRQTPDKGLEWVAVISDDGKNKYYADSMKGRFTISRDNSKNTLYLQMSSLRPEDTAVYYCARDLENVMIEVALESWGQGTLVTVSS
VL: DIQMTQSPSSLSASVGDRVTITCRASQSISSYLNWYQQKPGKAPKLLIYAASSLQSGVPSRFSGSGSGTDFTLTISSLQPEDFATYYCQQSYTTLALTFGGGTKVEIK
B11: C914 (antibody, V domains shown)
VH: QVQLQESGPGLVKPSQTLSLTCTVSGGSITSGDYYWTWIRQPPGKGLEWIGYIYYSGNTYYNLSLRSRITISEDTSKNQFSLKLRSVTAADTAVYYCARAMITFGGVIVVLDYWGQGTLVTVSS
VL: QSALTQPPSASGSPGQSVTISCTGTSTDVGGYNFVSWYQQHPGKAPKLMIYEVSKRPSGVPDRFSGSKSGNTASLTVSGLQAEDEADYYCSSYAGSNILYVFGTGTKVTVL
B12: C915 (antibody, V domains shown)
VH: QVQLQESGPGLVKPSQTLSLTCTVSGGSISSGDYYWSWIRQPPGKGLEWIGYIYYSDSTYYNPSLRTRVTISVDTSKNQFSLKLTSVTAADTAVYYCARAMITFGGVIVLYDYWGQGTLVTVSS
VL: B11 VL with T27S, F34Y, S54T, D62A, N97I, I98L
B13: C916 (antibody, V domains shown)
VH: EVQLVESGGGLVQPGGSLRLSCAASGFTFSNYDMHWVRQATGRGLEWVSTIGTAGDTYYPGSVKGRFTISRENAKNSLYLQMNSLRAGDTALYYCARVRYDSSGYFWSLDYWGQGTLVTVSS
VL: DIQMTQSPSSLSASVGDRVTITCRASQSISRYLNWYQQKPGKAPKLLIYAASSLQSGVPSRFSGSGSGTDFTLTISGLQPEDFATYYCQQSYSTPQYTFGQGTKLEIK
B14: C917 (antibody, V domains shown)
VH: B13 VH with R43K, E46D, L92V, Y100F, S102T
VL: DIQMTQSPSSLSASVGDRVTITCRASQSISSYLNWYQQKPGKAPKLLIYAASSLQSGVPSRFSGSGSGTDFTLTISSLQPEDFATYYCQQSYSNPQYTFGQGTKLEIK
B15: C918 (antibody, V domains shown)
VH: QVQLVESGGGLVKPGGSLRLSCTASGFTFSDYYMTWLRQAPGKGLEWVSYISSTSPYTSYADSVKGRFTISRDNARNSVYLQMNSLRAEDTAIYYCARVPPPQRLHPFDVWGQGTMVTVSS
VL: DIQMTQSPSTLSASVGDRVTITCRASQSISSWLAWYQQKPGKAPKLLIYQASSLESGVPSRFSGSGSGTDFTLTISSLQPDDFATYYCQQYFRYSWTFGQGTKVEI
B16: C920 (antibody, V domains shown)
VH: QLQLQESGPGLVKPSETLSLTCAVSGGSISNSPFYWGWIRQPPGKGLECIGSIYYSGSTYYNPSLKSRVTISVDTSKKQFSLKLSSVTAADTAVYYCARHFADGSGRVVDSWGQGILVTVSS
VL: EIVLTQSPATLSLSPGERATLSCRASQSVSSYLAWYQQKPGQAPSLLIYDVSNRATGIPARFSGSGSGTDFTLTISSLEPEDFAVYYCQQRINWPLYTFGQGTKLEIK
B17: C921 (antibody, V domains shown)
VH: B16 VH with G37A, S56T, K77T, S85R, S111Y, I116T
VL: B16 VL with S30T, S31T, S45R, N53S, I92S
B18: C922 (antibody, V domains shown)
VH: QVQLVESGGGLVKPGGSLRLSCAGSGFTFTDYYMAWIRQAPGKGLEWVSYISTSDRFINYADSVKGRFTISRDDAKNSLYLQMNSLRAEDTAVYYCARDGGGYDRFDHWGQGTLVTVSS
VL: DIQMTQSPSSLSASVGDRVTITCQASQDISNLLNWYQQKAGKAPKLLIYDASNLETGVPSRFSGSGSGTDFTFTISSLQPEDIATYYCLQYDNLPLTFGQGTKLEIK
B19: C923 (antibody, V domains shown)
VH: QVQLVESGGGLVKPGGSLRLSCAASGFTFSDYHMTWIRQAPGKGLEWVSYISNRSTYRNYADSVKGRFTISRDNAKNSLYLQMNSLRAEDTAVYYCARDGGAYDRFDYWGQGTLVTVSS
VL: B18 VL with S30K, N31K, L32F, A40P, F71L, L89Q
B20: C924 (antibody, V domains shown)
VH: QVQLVESGGGVVQPGRSLRLSCAASGFTFSSYGMHWVRQAPGKGLEWVAVISDDGSNKYYADSVKGRFTISRDNSKNTLYLQMNSLRAEDTAVYYCAKSWWLSENWFDPWGQGTLVTVSS
VL: EIVMTQSPATLSVSPGERATLSCRASQSVSSNLAWYQQKPGQAPRLLIYGASTRATGIPARFSGTGSGTEFTLTISSLQSEDFAVYYCQQYNNWPLTFGGGTKVEIK
B21: C925 (antibody, V domains shown)
VH: B20 VH with S31N, M34L, I51T, S56N, N57R, N74D, S85N, A88T
VL: B20 VL with S30R, K39R, S52F, G64V, T65S, S76D
B22: C927 (antibody, V domains shown)
VH: QVQLVESGGGVVQPGRSLRLSCVASGFTFSYFDMHWVRQAPGKGLEWVALISHDGSTTFYGDSARGRFTISRDNSRNTLDLQMNSLRPEDTAVYFCAKPVDAAMFDFWGQGTLVTVS
VL: SYELTQPPSVSVAPGKTARITCGGNNIGSKSVHWYQQRPGQAPVLVIYYDSDRPSGIPERFSGSNSGNTATLTISRVEAGDEADFYCQVWDRSTNHLVVFGGGTQLTVL
B23: C928 (antibody, V domains shown)
VH: QVQLVESGGGVVQPGRSLRLSCAASGFTFSFFDMHWVRQAPGKGLEWVADISYDGSNQYYGDSVKGRFTISRDNSKSTLYLQMNSLRAEDTAVYYCAKPVDTAMFDSWGQGTLVTVSS
VL: SYELTQPPSVSVAPGETARITCGGNNIGHKSVHWYQQQPGQAPVLVIYYDSERPSGIPERFSGSNSGNTATLTISRVEAGDEADYHCQVWDGGNDHLVIFGGGTKLTVL
B24: C929 (antibody, V domains shown)
VH: EVQLVESGGGLIQPGGSLRLSCAASGFTVSSNYMTWVRQAPGKGLEWVSVIYSGGTTYYADSVKGRFTISRDNSKNTLYLQMNSLRAEDTAVYYCARDLVVWGMDVWGQGTTVTVSS
VL: DIQLTQSPSFLSASVGDRVTITCRASQGISSYLAWYQQKPGKAPKLLIYAASTLQSGVPSRFSGSGSGTEFTLTISSLQPEDFATYYCQLLNSYPYTFGQGTKLEIK
B25: C930 (antibody, V domains shown)
VH: B24 VH with I12F, S21A, F27I, T35S, A40P, S53A, T56S, Y58F, F67L, M82I
VL: B24 VL with L90Q, S93T
B26: C931 (antibody, V domains shown)
VH: QVQLVESGGGVVQPGRSLRLSCAASGFSFSTYGMHWVRQAPGKGLEWVAVISFDGSQKYYGDSVKGRFTISRDNPKNTLDLQMNSLRAEDTAVYYCAKVVVRGVIISLYYGMDVWGQGTTVTVSS
VL: not shown

target: T1, SARS-COV-2 RBD (SARS-COV-2, UniProt P0DTC2 319-539); test: ELISA, RBD coated on plate
T1 construct: also called WT RBD

| Binder | EC50 [ng/mL] |
| --- | --- |
| B1 | 2.54 |
| B2 | 3.31 |
| B3 | 3.06 |
| B4 | 1.07 |
| B5 | 3.71 |
| B6 | 1.27 |
| B7 | 3.24 |
| B8 | 2.47 |
| B9 | 2.36 |
| B10 | 2.45 |
| B11 | 1.59 |
| B12 | 3.49 |
| B13 | 1.97 |
| B14 | 1.05 |
| B15 | 1.78 |
| B16 | 2.35 |
| B17 | 3.91 |
| B18 | 2.42 |
| B19 | 1.95 |
| B20 | 2.5 |
| B21 | 2.26 |
| B22 | 3.77 |
| B23 | 4.14 |
| B24 | 2.07 |
| B25 | 1.24 |
| B26 | 2.57 |

Source: US20240218057A1 (ROCKEFELLER UNIVERSITY, published 2024)
